Reference: a protein production outcome set (Wang et al. 2014)

Experiment: label from the status in PepcDB records

MGHIKKGELTQEEKELLEVIGKGTVQEAGRLLSSKNVHVNCLDENGMTPLMHAAYKGKLEMCKLLLRHGADASCHQHEHGYTALMFAALSGNKDITWVMLEAGAETDVVNSVGRTAAQMAAFVGQHDCVAIINNFFPRERLDYYTKPQGLDKEPKQPPKLAGPLHKIITTTNLHPVKIVMLVSENPLLADAAALGKCYRVMDLICEKCMKQRDMNEVLAMKMHYISCIFQKCITFLKEGENKLDTLIRSLLKGRASDGFPVYQEKIIRESIRKFPYCEATLLQQLVRSIAPVEIGSDPTAFSVLTQAITGQVGFVDVEFCTTCGEKGASKRCSVCKMVIYCDQTCQKTHWFAHKKMCKSLKDVYEKQQIEAAKHKRQEEKNGNPNVSSNHVNEDQPEAEEGITQENSIPSDSVEGEKEAANDTGLASAQDAPTGPQLSEE
protein production: failed

MKAAPARSAAYDNPYAKRLFLIIDSLPQMQRALAMTLSSFGANTVEYASKASDALAKMAKYEFDVVLCDYDLGNGYDGLYLFEEIRERNLLKQSCVFMIVTGERRAQRVISAAELAPDDYLLKPFTGEVLRDRLERAMRKREAFRLVDENILRHDYLSAIETCGRKIEENGEFALDFMRLKGSLALKINDFDTARDAYMQVLRLRPATWAKMGLAKSLAGLKSHDEARLLFEAVLADNNQVMEAYDWLARLYRGNHDLGRAQHTLQTAADMSPVVFRRQQQLAQVAVLNHDLAAAEAACQQTLDIAKYTWHRSPTHYAALLRVQLARGDNGNAVRTLANLKHDYRYNEEGEWLAGVMDSQLQAKNGNADKARELLEAAGERFKQLAPKLDQESQLEYARACYQQGRDGQGNAVMEYLVRNHHDDEDMLEHFGDMFEEIGLSQAGRQLIAQNVKSVLELNNQAVREAQSGQFDAAIERFVKALDEMPQNVQIMLNLINAVLAYVSQNGWHESHMRRAYELLGKVRDTAPTNNKFQKILQSWRLLVDKMDKPQWAL
protein production: failed

MGTVSKALTLLTYFNHGRLEIGLSDLTRLSGMNKATVYRLMSELQEAGFVEQVEGARSYRLGPQVLRLAALREASVPILSASRRVLRELSEDTGETTHLSLLQGEQLASLSHAYSSRNATKVMMEDAEVLTFHGTASGLAVLAYSEPSFVDAVLAAPLTARTPQTQTDPAAIRAEIAEVRRTGLAQSIGGFEAEVHSHAVPIFGPDRAVLGALAVAAPTSRMTPDQKRTIPPALRAAGLSLTERIGGACPPEFPTDIAA
protein production: not failed

SAMAQKEEGHEAAAAEAKKETDLAHVDQVETFVGKEKYYVVKGTDKKGTALYVWVPADKKAKILSKEAKEGISEDKAAKIIKDEGLVSKQKEVHLAREGNVLLWEVTYLDKEGQYSLSYVDFTTGKILKNITP
protein production: not failed

MQLALVLSELGEYQVSNQWLLKIIHDLDETMYDCLYFLANNYACLGLFREATQYAEQYLTCESDGEFADDAADLLELLKLDRHDVSEEQEQLITMQERARHLLEQERFAEAIEALEAIVSRYPEFWSAHNNLALAYFYNGDVERAKQKLLEVLKRDPGNLHALCNALVFAYYLHDQEEVAALCETLASVYPFFREHQYKLGATFALVGRFDSAFRWLYRLYKNGFDGDGPFYYWLAYSAYHIGHESLARQVWETLTTLHPEKLEHHHHHH
protein production: failed

MAPLLMILAAQLLIASGNLLVKLLETNTPVFQLVLYRQLFATLLVLPFVWHLQGNLKLSPFYKVHLSRALLIGLGNAIFMLAVLHLPLATVTAVIYSSPLILLLLSAFFLNERIGYRRSVAGLIGFTGILLISQPTEVNLYIGLAFFGAMISAINSLILKAYSTHEHPFSTLFWSNAFAMVFLIPATWYEGANFSLPVAQVGLTLGVFYVGMTYLIIHAYRRADASQMAPVEYTGLIFAALLGWWFLDETLSVVVCIGIGLVIFSSLLPSYGELKAKWKSRRR
protein production: failed

MTSSTETTATTPQVAVNDIGNEEAFLAAIDETIKYFNDGDIVDGVIVKVDRDEVLLDIGYKTEGVIPSRELSIKHDVDPNEVVAVGDEIEALVLQKEDKEGRLILSKKRAQYERAWGTIEKIKEEDGIVTGTVIEVVKGGLILDIGLRGFLPASLVEMRRVRDLQPYVGKELEAKIIELDKNRNNVVLSRRAWLEQTQSEVRQTFLTTLQKGQVRSGVVSSIVNFGAFVDLGGVDGLVHVSELSWKHIDHPSEVVEVGQEVTVEVLDVDMDRERVSLSLKATQEDPWQQFARTHQIGQVVPGKVTKLVPFGAFVRVDEGIEGLVHISELAERHVEIPEQVVQVNDEIFVKVIDIDLERRRISLSLKQANEAFGADPSTVEFDPTLYGMAASYDDQGNYIYPEGFDPETNDWLEGYETQREAWETQYAEAQTRFEQHQAQVIKSREADEKAAAEGVDTAGAAPAASGGGGGGSYSSEGGDNSGALASDEALAALREKLAGGQS
protein production: failed

MNLCGDSEILKEDDNTKNFARKNPDPYPPTGTSLVYLDHLELCLCSTEWWNLLTCILDDAPKLRVLKLKLYRKHCVEYNESMEPWKQPDYVPICLSSYLEIFEWRQYNGEEQEREVAKYILENASRLKKAIFYLESAEKHGILKELECMARGSKKCQLVFD
protein production: failed

MDPEETSVYLDYYYATSPNSDIRETHSHVPYTSVFLPVFYTAVFLTGVLGNLVLMGALHFKPGSRRLIDIFIINLAASDFIFLVTLPLWVDKEASLGLWRTGSFLCKGSSYMISVNMHCSVLLLTCMSVDRYLAIVWPVVSRKFRRTDCAYVVCASIWFISCLLGLPTLLSRELTLIDDKPYCAEKKATPIKLIWSLVALIFTFFVPLLSIVTCYCCIARKLCAHYQQSGKHNKKLKKSIKIIFIVVAAFLVSWLPFNTFKFLAIVSGLRQEHYLPSAILQLGMEVSGPLAFANSCVNPFIYYIFDSYIRRAIVHCLCPCLKNYDFGSSTETSDSHLTKALSTFIHAEDFARRRKRSVSL
protein production: failed

MEIIIYIFVSIAIISLQAITPFVIRKSECFGVNVGERANRNAELTQLKKQYVGQVILWTSFVAIIGIALIQGFHSSENTQAGIFIASMFSQLIVSFIIYYRFHHTTLQWKRDKIEAGEISTNSIIMVDTSFHRRKMVISYTWFIVPLLIFIITLAITVVFYSTAPVDFPIHFDMSGTVTDTVAKSPRVVLLLPMMQLGMIALFIFINFVIARSKQTVENENPTDSLKRNMLFRQISSKAMLIMCTIMVIDFLIMQVVTLLALPAEWMMVTMIISVVLILFGTVLLAVKVGQGGSRLKFADQPDGVNKPIRDDDSFWKAGVIYFNRNDPALFVEKRFGIGWTINTARPVAWLSFVIIIAVIILISILF
protein production: failed

MTSPKHPPIRRDWLSKILAGTLLGFTLALGCSGLLVLALPQLPLPVKAQLAMWVVMPLWLGVLSGCFAFRDGRRAWLWLGGATALVLDLLVVARLS
protein production: failed

GVLILHGFTANLESVRALFGPLGRFDLKMATPLLRGHGAASPDELRGVTWREWLDDAENAFETLTGTGGKAVVIGHSMGALLALQLAARRPELVDSVILATPPVRLTSPLGPGRPLHFLAPLVSHVVDRWDMEARFADPGSAIIPKQYDWAPTKTILSMFELLEETMRITGRVRVPALILQARHESVVLPESAEILTRAIATPPEAKSIVWFDKTDHQIFCDCERKAAVDAVVSFVSKRFP
protein production: failed

VYGSEVESKIIEFTIVGADEIIAEKLGISVGDFVYKIIRLRIIHSIPTIMEHTWMPISVIPGVEVSVLEESIYSHIQNKLGLQVGTSVVRVKGIRPDDKEKQFMNLTNQDFLMRVEQVAYLTDGRTFEYSYADHLPETFEFETVITAKSYKEA
protein production: not failed

MSLTEPRIVATYHIASDAERIEQRALALAIEQSVECPLEAIGDPAIVANIVGRVEDVAELQPGRYAVRIGLAAATAPAEPGQLLNMLFGNSSIQPDIALADVELPAHYLTAFGGPRVGLAGIRTLTGAQSRALTASALKPQGLSPAALASIAHQLALGGVDLIKDDHGLADQAFSPFAERAAAVGKAVREANAARGGRTLYAPNISGTLDDMRRQLGVIRDEGIGAVLVAPMIVGVSNFHAIVKEAAGLVVVAHPAMAGAAKIAAPLLLGRLFRLFGADATVFPNYGGRFAYSTASCLALAQAARDPFGKLNACIPTPAGGIMLQRVNELLRFYGQDVMLLIGGSLLASRERLTEQASRFVNKVADYGQREGHHHHHH
protein production: not failed

RGSRFTWRKECLAVMESYFNENQYPDEAKREEIANACNAVIQKPGKKLSDLERVTSLKVYNWFANRRKEIKRRANIAAILES
protein production: not failed

MSILTIILIVLLVILLFKVGLSILRFLISVGIVLLCIYLGYQGVLWLFEHFQNFSGFIQ
protein production: failed

MASILFFEKPGCQNNTRQKAWLELSGHTVDAVNILEYAWTKEELSLYLGENPISACFNPAAPEVKTGSMKPELLNKEDALDAMIKKPLLIRRPLLKIGNHYLQGFDTAVLRTIIS
protein production: failed

MYLLTFILIRINKYSDKAKKSAILVLLFLSLGAILKILEIADPSVKMDYIIQLVYSLTVFGAFVALSFYIKFLETPPSLTVHHSTKLPKNGGSEPKLVGAYLVSGSRSRIVDLINMIRELNAPILVFTRYPTFYQDLGENIKVIWITQASEDGIPPTKLHVIQDYAIKFAKENKYAVVIIDCVEYLLLYNEFASVFKFLASLKDYLIMMNSALVLAVDEKALDEKYYTLLLNEFEPL
protein production: failed

MKAWVLKRLGGPLELVDLPEPEAEEGEVVLRVEAVGLNFADHLMRLGAYLTRLHPPFIPGMEVVGVVEGRRYAALVPQGGLAERVAVPKGALLPLPEGLSPEEAAAFPVSFLTAYLALKRAQARPGEKVLVQAAAGALGTAAVQVARAMGLRVLAAASRPEKLALPLALGAEEAATYAEVPERAKAWGGLDLVLEVRGKEVEESLGLLAHGGRLVYIGAAEGEVAPIPPLRLMRRNLAVLGFWLTPLLREGALVEEALGFLLPRLGRELRPVVGPVFPFAEAEAAFRALLDRGHTGKVVVRL
protein production: not failed

METSKKLVIVAVLSITLILTYAYLISIIEGVDYFTALYFSVITITTTGYGDFTPKTFLGRTLTVVYLCVGVGIVMYLFSLIAEFIVEGKFEEFVRLKKMKNKIKTLKDHYIICGYGRLGKVVGEKFIEENIPFIAIDINEDVLKEEYEKYPDKFLYIVGDAKKEEVLKKAKIDKAKGLIATLPSDADNVFLTLTARELNPNILITAKADEKEAIRKLKIAGANRVVSPYLIGGLRMAEVSVRPGILDFLSTFIKIAKDEYEEDIELRKFVIEKDSELAYKSLKDANIRGKTGATILGIRREKEFCINPYPEFILKPGDVIYAFGTEENLKYLENLVKKKKKKL
protein production: failed

MSRRRMSESLPPGVQVDPAAIEQLVGRPVDDLSHYRRALTHRSLLRVHPARTFRSNERLEFLGDALLDVFVGEVLYDRFPEKDEGALTRLRARLVSERPLATYARGLGLGPHLLMSENAAEGDGRDNPSILADAFEAFVGAVYLDLGHEAARGFVQDRVLAPVDLEDVATRDDNYKSQLLEHLQALGRPQPTYHVVEEKGPSHDKTFTVEVRVGDAAYERGTAGSKQDAEQQAARRTLDEMASDPPAS
protein production: failed

MVEKGKMVKISYDGYVDGKLFDTTNEELAKKEGIYNPAMIYGPVAIFAGEGQVLPGLDEAILEMDVGEEREVVLPPEKAFGKRDPSKIKLIPLSEFTKRGIKPIKGLTITIDGIPGKIVSINSGRVLVDFNHELAGKEVKYRIKIEEVVDDKKNIVKEIVKMYVPRLSDVKVTIRNGTVKIELPEFAPFIPNIQTAKMAIANEILKRLEDAEKVSFVETFERKKETKEENK
protein production: failed
